Substitutions are numbered along the chain they refer to. Numbers in names are those of the source.
Experiments:
CC(C)C=O = assay: cells, lysate or membranes; details: conversion to isobutanol
[1] = substrate: CC(C)C=O; assay: Alcohol dehydrogenase kinetic assay, Ec_FucO; assay type: biochemical, E. coli; details: conversion to isobutanol
Description: (§1) E. coli strain GEVO1745 was transformed by electroporation with one of plasmids pGV1705-A, pGV1748-A, pGV1749-A, or pGV1778-A. 50 mL of TB medium (23.1 g/L KH2PO4, 125.4 g/L K2HPO4, 12 g/L Bacto-tryptone, 24 g/L yeast extract, 4 ml/L glycerol) were inoculated to an initial OD600 of 0.2 using a 3 mL overnight LB culture of a single colony. The 50 mL culture was allowed to grow for 3-4 hrs at 250 rpm and 37° C. Protein expression was induced at an OD600 of 2-2.5 by the addition of IPTG to a final concentration of 1 mM. After the addition of IPTG, protein expression was allowed to continue for 20-24 hours at 225 rpm and 25° C.
(§2) Alcohol dehydrogenase (ADH) activity was assayed kinetically by monitoring the decrease in NAD(P)H concentration by measuring the absorbance at 340 nm. A reaction buffer was prepared containing 0.1 M potassium phosphate, 0.4 mM NAD(P)H, 10 mM isobutyraldehyde, 1 mM DTT, and 1 mM PMSF. Cell pellets were resuspended in 0.1 M potassium phosphate buffer containing 1 mM DTT and 1 mM PMSF at one fifth of the culture volume, i.e. 10 mL resuspension buffer for cell pellet from a 50 mL culture. The resuspended cells were lysed by sonication for 1 min with a 50% duty cycle. The reaction was initiated by the addition of 0.5 mL of the reaction buffer to 0.5 mL of clarified lysate in a cuvette. […]

[2] = substrate: NC(=O)C1=CN([C@@H]2O[C@H](COP(=O)(O)OP(=O)(O)OC[C@H]3O[C@@H](n4cnc5c(N)ncnc54)[C@H](O)[C@@H]3O)[C@@H](O)[C@H]2O)C=CC1; assay: KARI cuvette assay, purified Ec_IlvC^B8A71S-his6; assay type: biochemical, E. coli
Description: (§3) KARI cuvette assay: KARI activity was assayed kinetically by monitoring the decrease in NAD(P)H concentration by measuring the absorbance at 340 nm. A reaction buffer was prepared containing 250 mM potassium phosphate pH 7, 1 mM DTT and 10 mM MgCl2. Cell pellets were resuspended (0.25 g wet weight/mL buffer) in 250 mM potassium phosphate (KPi) buffer containing 1 mM DTT and 10 mM MgCl2. The resuspended cells were lysed by sonication for 1 min with a 50% duty cycle and pelleted at 11000×g and 4° C. for 15 min. A reaction mixture consisting of 910 μl reaction buffer, 50 μl acetolactate, and 20 μl lysate was prepared in a cuvette. The reaction was initiated by addition of 20 μL of 10 mM NAD(P)H. A substrate free control was conducted using reaction buffer without the addition of acetolactate.
(§4) Purification of KARI: Cell pellets used for purification were resuspended in purification buffer A (20 mM Tris, 20 mM imidazol, 100 mM NaCl, 10 mM MgCl2, pH 7.4). KARI was purified by IMAC (Immobilized metal affinity chromatography) over a 1 ml Histrap High Performance (histrap HP) column pre-charged with Nickel (GE Healthcare) using an Akta FPLC system (GE Healthcare). The column was equilibrated with four column volumes (cv) of buffer A. After injecting the crude extract, the column was washed with buffer A for 2 cv, followed by a wash step with a mixture of 10% elution buffer B (20 mM Tris, 300 mM imidazol, 100 mM NaCl, 10 mM MgCl2, pH 7.4) for 5 cv. KARI variants were eluted at 40% buffer B and stored at 4° C.
(§5) As a next step, the gene encoding variant Ec_llvC^Q110V-his6 (SEQ ID NO: 23) was used as template to generate individual combinations of the mutation Q110V with other mutations: R68L, A71T, A71S, R76G, R76S, R76T, S78D, and R76D. After screening the variants as described above, the most promising ones were expressed, purified, and characterized. Table 29 lists the KM values in μM on NADPH and NADH for Ec_llvC^his6, Ec_llvC^Q110V-his6, and variants of Ec_llvC^Q110V-his6. […] The A71S mutation was introduced into Ec_llvC^B8-his6 resulting in a variant Ec_llvC^B8A71S-his6, which yielded 44% catalytic efficiency on NADH compared to the catalytic efficiency of wild-type KARI on NADPH (FIG. 19 and Table 30).

[3] = substrate: NC(=O)C1=CN([C@@H]2O[C@H](COP(=O)(O)OP(=O)(O)OC[C@H]3O[C@@H](n4cnc5c(N)ncnc54)[C@H](OP(=O)(O)O)[C@@H]3O)[C@@H](O)[C@H]2O)C=CC1; assay: KARI cuvette assay, purified Ec_IlvC^B8A71S-his6; assay type: biochemical, E. coli; details: other: purified; acetolactate as substrate
Description: as §3, §4, §5

[4] = substrate: CC(C)C=O; assay: Alcohol dehydrogenase kinetic assay, Dm_Adh; assay type: biochemical, Drosophila melanogaster; details: conversion to isobutanol
Description: as §1, §2

[5] = substrate: NC(=O)C1=CN([C@@H]2O[C@H](COP(=O)(O)OP(=O)(O)OC[C@H]3O[C@@H](n4cnc5c(N)ncnc54)[C@H](O)[C@@H]3O)[C@@H](O)[C@H]2O)C=CC1; assay: KARI assay, purified Ec_IlvC^P2D1-A1-his6; assay type: biochemical, E. coli; details: other: expressed in yeast GEVO1186, purified; 30.0 °C
Description: as §3, §4
Improved variants were expressed and purified from GEVO1186. 20 mL SC-URA medium overnight cultures were grown at 30° C. and 250 rpm in 250 mL flasks and were then used to inoculate 96 well deep well plates on the next morning. 50 μL of the overnight cultures were transferred into 600 μL SC-URA medium per well. The plates were then grown at 30° C. and 250 rpm in a humidified plate shaker for 8 h. In order to the harvest, the cultures were transferred into 50 mL Falcon tubes and then spun down at 4° C. and 5,000 rpm for 10 min. […]

[6] = substrate: NC(=O)C1=CN([C@@H]2O[C@H](COP(=O)(O)OP(=O)(O)OC[C@H]3O[C@@H](n4cnc5c(N)ncnc54)[C@H](O)[C@@H]3O)[C@@H](O)[C@H]2O)C=CC1; assay: KARI assay, purified Ec_IlvC^P2D1-his6; assay type: biochemical, E. coli; details: other: expressed in yeast GEVO1186, purified; 30.0 °C
Description: as §3, §4
(§6) Improved variants were expressed and purified from GEVO1186. 20 mL SC-URA medium overnight cultures were grown at 30° C. and 250 rpm in 250 mL flasks and were then used to inoculate 96 well deep well plates on the next morning. 50 μL of the overnight cultures were transferred into 600 μL SC-URA medium per well. The plates were then grown at 30° C. and 250 rpm in a humidified plate shaker for 8 h. In order to the harvest, the cultures were transferred into 50 mL Falcon tubes and then spun down at 4° C. and 5,000 rpm for 10 min. The pellets were frozen until they were processed and purified as described in Example 14 above.
(§7) Results: Two rounds of error-prone PCR and screening were carried out. The libraries (˜2400 clones per library) were screened using the KARI high-throughput assay. […] In the first round variant Ec_llvC^P2D1-his6 (SEQ ID NO: 38), encoded by Ec_ilvC_coSc^P2D1-his6 (SEQ ID NO: 37) was identified carrying the following mutations: D146G and G185R. This variant served as parent for the second round of error-prone PCR and screening which yielded variant Ec_llvC^P2D1-A1-his6 (SEQ ID NO: 42), encoded by Ec_ilvC_coSc^P2D1-A1-his6 (SEQ ID NO: 41) with one additional mutation (K433E). A two-fold improvement of the specific activity in lysate and in the purified enzyme was observed after two rounds of error-prone PCR.

[7] = substrate: NC(=O)C1=CN([C@@H]2O[C@H](COP(=O)(O)OP(=O)(O)OC[C@H]3O[C@@H](n4cnc5c(N)ncnc54)[C@H](OP(=O)(O)O)[C@@H]3O)[C@@H](O)[C@H]2O)C=CC1; assay: KARI assay, purified Ec_IlvC^P2D1-his6; assay type: biochemical, E. coli; details: other: expressed in yeast GEVO1186, purified; 30.0 °C
Description: as §3, §4, §6, §7

[8] = other: purified, acetolactate as substrate

Molecule: Klebsiella pneumoniae propanediol dehydrogenase Kp_DhaT, SEQ ID NO: 63 (Klebsiella pneumoniae)
- Km (CC(C)C=O; other: NADH as cofactor): 1300 µM
- Km (CC(C)C=O; other: NADPH as cofactor): 600 µM

B1: Escherichia coli propanediol dehydrogenase Ec_FucO, SEQ ID NO: 65 (Escherichia coli K-12) (protein)
chain: MMANRMILNETAWFGRGAVGALTDEVKRRGYQKALIVTDKTLVQCGVVAKVTDKMDAAGLAWAIYDGVVPNPTITVVKEGLGVFQNSGADYLIAIGGGSPQDTCKAIGIISNNPEFADVRSLEGLSPTNKPSVPILAIPTTAGTAAEVTINYVITDEEKRRKFVCVDPHDIPQVAFIDADMMDGMPPALKAATGVDALTHAIEGYITRGAWALTDALHIKAIEIIAGALRGSVAGDKDAGEEMALGQYVAGMGFSNVGLGLVHGMAHPLGAFYNTPHGVANAILLPHVMRYNADFTGEKYRDIARVMGVKVEGMSLEEARNAAVEAVFALNRDVGIPPHLRDVGVRKEDIPALAQAALDDVCTGGNPREATLEDIVELYHTAW
notes: clarified crude lysate
- Km ([1]; other: NADH as cofactor): 800 µM
- Km ([1]; other: NADPH as cofactor): 200 µM

B2: E. coli KARI Ec_IlvC variant Ec_IlvC^B8A71S-his6 (Q110V, S78D, A71S), SEQ ID NO: 29 (Escherichia coli K-12; A71S/Q110V/S78D) (protein)
chain: MANYFNTLNLRQQLAQLGKCRFMGRDEFADGASYLQGKKVVIVGCGAQGLNQGLNMRDSGLDISYALRKESIAEKRADWRKATENGFKVGTYEELIPQADLVINLTPDKVHSDVVRTVQPLMKDGAALGYSHGFNIVEVGEQIRKDITVVMVAPKCPGTEVREEYKRGFGVPTLIAVHPENDPKGEGMAIAKAWAAATGGHRAGVLESSFVAEVKSDLMGEQTILCGMLQAGSLLCFDKLVEEGTDPAYAEKLIQFGWETITEALKQGGITLMMDRLSNPAKLRAYALSEQLKEIMAPLFQKHMDDIISGEFSSGMMADWANDDKKLLTWREETGKTAFETAPQYEGKIGEQEYFDKGVLMIAMVKAGVELAFETMVDSGIIEESAYYESLHELPLIANTIARKRLYEMNVVISDTAEYGNYLFSYACVPLLKPFMAELQPGDLGKAIPEGAVDNGQLRDVNEAIRSHAIEQVGKKLRGYMTDMKRIAVAGLEHHHHHH
- Km [2, 8]: 53.5 µM
- kcat [2, 8]: 2.0 s⁻¹
- kcat/Km [2, 8]: 38,330 M^−1 * s^−1
- kcat/Km ([2]; with NADH): 37500 M⁻¹ s⁻¹
- Km [3]: 63.4 µM
- kcat [3]: 2.4 s⁻¹
- kcat/Km [3]: 37,459 M^−1 * s^−1

B3: Drosophila melanogaster alcohol dehydrogenase Dm_Adh, SEQ ID NO: 61 (Drosophila melanogaster) (protein)
chain: MSFTLTNKNVIFVAGLGGIGLDTSKELLKRDLKNLVILDRIENPAAIAELKAINPKVTVTFYPYDVTVPIAETTKLLKTIFAQLKTVDVLINGAGILDDHQIERTIAVNYTGLVNTTTAILDFWDKRKGGPGGIICNIGSVTGFNAIYQVPVYSGTKAAVVNFTSSLAKLAPITGVTAYTVNPGITRTTLVHTFNSWLDVEPQVAEKLLAHPTQPSLACAENFVKAIELNQNGAIWKLDLGTLEAIQWTKHWDSGI
notes: clarified crude lysate
- Km ([4]; other: NADH as cofactor): 900 µM
- Km ([4]; other: NADPH as cofactor): 2700 µM

B4: E. coli KARI Ec_IlvC variant Ec_IlvC^P2D1-A1-his6 (Ec_IlvC^P2D1-his6 with K433E), SEQ ID NO: 42 (Escherichia coli K-12; A71S/D146G/G185R/K433E/Q110V/R76D/S78D) (protein)
chain: MANYFNTLNLRQQLAQLGKCRFMGRDEFADGASYLQGKKVVIVGCGAQGLNQGLNMRDSGLDISYALRKESIAEKDADWRKATENGFKVGTYEELIPQADLVINLTPDKVHSDVVRTVQPLMKDGAALGYSHGFNIVEVGEQIRKGITVVMVAPKCPGTEVREEYKRGFGVPTLIAVHPENDPKREGMAIAKAWAAATGGHRAGVLESSFVAEVKSDLMGEQTILCGMLQAGSLLCFDKLVEEGTDPAYAEKLIQFGWETITEALKQGGITLMMDRLSNPAKLRAYALSEQLKEIMAPLFQKHMDDIISGEFSSGMMADWANDDKKLLTWREETGKTAFETAPQYEGKIGEQEYFDKGVLMIAMVKAGVELAFETMVDSGIIEESAYYESLHELPLIANTIARKRLYEMNVVISDTAEYGNYLFSYACVPLLEPFMAELQPGDLGKAIPEGAVDNGQLRDVNEAIRSHAIEQVGKKLRGYMTDMKRIAVAGHHHHHH
- Km [5]: 26 µM
- kcat [5]: 4.3 s⁻¹
- kcat/Km [5]: 167,687 M^−1 * S^−1

B5: E. coli KARI Ec_IlvC variant Ec_IlvC^P2D1-his6 (Ec_IlvC^6E6-his6 with D146G and G185R), SEQ ID NO: 38 (Escherichia coli K-12; A71S/D146G/G185R/Q110V/R76D/S78D) (protein)
chain: B4 chain with E433K
- Km [6]: 40 µM
- kcat [6]: 3.3 s⁻¹
- kcat/Km [6]: 82,650 M^−1 * S^−1
- Km [7]: 1432 µM
- kcat [7]: 0.54 s⁻¹
- kcat/Km [7]: 377 M^−1 * S^−1
